Experimental data: patent publication US20140112930A1 (published 2014)
Residue numbers refer to the chain shown, from its start.

T1: Monomeric hAng-2FD (human, UniProt O15123 282-496)
T1 construct: also called fibrinogen-like domain of human Ang2; Human Ang-2FD
T1 sequence: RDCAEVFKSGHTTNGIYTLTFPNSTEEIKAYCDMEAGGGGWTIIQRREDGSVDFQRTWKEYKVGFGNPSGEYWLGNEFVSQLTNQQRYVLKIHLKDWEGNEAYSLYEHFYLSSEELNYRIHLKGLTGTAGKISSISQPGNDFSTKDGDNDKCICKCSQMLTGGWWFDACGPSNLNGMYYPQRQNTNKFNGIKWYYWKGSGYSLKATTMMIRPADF

T2: wild-type human Ang-2 (hAng-2-WT) (human, UniProt O15123 19-496)
T2 construct: called full-length wild-type; also called Full-length wild-type human Ang-2
T2 sequence: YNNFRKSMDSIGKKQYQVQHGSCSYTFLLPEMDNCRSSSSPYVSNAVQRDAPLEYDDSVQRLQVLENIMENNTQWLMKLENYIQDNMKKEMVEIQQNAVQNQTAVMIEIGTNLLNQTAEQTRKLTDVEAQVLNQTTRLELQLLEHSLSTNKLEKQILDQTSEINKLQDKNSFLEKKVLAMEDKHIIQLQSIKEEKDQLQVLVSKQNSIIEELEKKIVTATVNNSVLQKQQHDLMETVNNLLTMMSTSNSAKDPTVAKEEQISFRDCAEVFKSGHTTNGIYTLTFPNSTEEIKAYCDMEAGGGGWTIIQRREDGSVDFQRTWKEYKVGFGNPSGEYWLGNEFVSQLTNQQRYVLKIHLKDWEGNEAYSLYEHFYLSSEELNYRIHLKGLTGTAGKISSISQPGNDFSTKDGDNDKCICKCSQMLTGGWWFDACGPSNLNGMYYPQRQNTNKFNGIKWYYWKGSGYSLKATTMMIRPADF

B1: H2M742N (antibody, V domains shown)
VH: DVQLLESGGDLVQPGGSLRLSCEASGFTFRNYVMIWVRQAPGKGLEWVSGISNSGGTTHYTDSVKGRFTISRDNSKNTLYLQINSLRAEDTAVYYCAKGYLDTSLIEGNWFDPWGQGTLVTVSS
VL: NIVMTQSPLSLPVTPGEPASISCRSSQSLLHSNGFNYLNWFLQKPGQSPQLLIYLGSNRASGVPDKFSGSGSGTDFTLNINRVEAEDVGIYFCMQTLQTPLTFGGGTKVEIK
B2: H2M743N (antibody, V domains shown)
VH: EVQLLESGGGLVQPGGSLRLSCAASGFTFRKYAMSWVRQAPGKGLEWVSVISVSGGNTYYADSVKGRFTISRDNSKNTLYLQLNSLRAEDTAVYYCAKDLTDIVLMVYVDYWGQGTLVTVSS
VL: DIQMTQSPSSVSASVGDRVTITCRASQDIDRWLAWYQQKPGKAPKLLIYAASSLQSGVPSRFSGSGSGTDFTLTISTLQPEDFATYYCQQANSLPFTFGGGTKVEIK
B3: H1M728N (antibody, V domains shown)
VH: EVQLVESGGDLVQPGGSLRLSCTASGFTFSKYWMTWVRQAPGRGLEWVANIKEDGNEKYFLDSVKGRFTISRDNAKDLLFLQMNSLRGEDTAVYYCVRDRGIEVAGPFDYWGQGTLVTVSS
VL: DIQMTQSPSTLSASVGDRVTVTCRASQTIINWLAWYQQKPGKAPKLLISKASSLESGVPSRFSGSGSGTEFTLTISSLQPDDFATYYCQQYNRYWTFGQGTMVEIK
B4: H2M749N (antibody, V domains shown)
VH: QVQLVESGGGVVQPGRSLRLSCAASGFTFSSYGMHWVRQAPGKGLEWVAVIWYDEFNKYYADSVKGRFTISRDNSKNTLYLQMNSLRAEDTAVYYCARERESGYSYGFDYWGQGTLVTVSS
VL: EIVMTQSPATLSVSPGERATLSCRAGQSVSSNLAWYQQKPGQAPRLLIYGASTRATGIPARFSGSGSGTEFTLTISSLQSEDFAVYYCQQYNNWWTFGQGTKVEIK
notes: also called H1M749N; H1M749
B5: H2M744N (antibody, V domains shown)
VH: QVQLVQSGVEVKKPGASVKVSCKTSGYTFSNNGFSWVRQAPGQGLEWLGWISGYNGNTNYAQKFQGRVTMTTDTSTSTAYMELRTLRSDDTAVYYCARDQDYSNFHWLDPWGQGTLVTVAS
VL: DIQMTQSPSSVSASVGDRVIITCRASQGLSSWLAWYQQKPGTAPKLLIHSASSLQTGVPSRFSGSGSGTEFALTINSLQPEDFGTYYCQQANSFPLTFGGGTRVEIK
B6: H1M732N (antibody, V domains shown)
VH: EVQLVESGGGLVRPGGSLRLSCAASGFTFTNAWMSWVRQAPGKGLEWIGQIKSKTDGGTIDYAAPVKGRFTVSRDDSENTLFLQMNSLKTEDTAVYYCAGNWNYVDFDYWGQGTLVTVSS
VL: DIQMTQSPSSLSASVGDRVTITCRASQDIRNDLGWYQQKPGKAPKRLIYAASSLQGGVPSRFSGSGSGTEFTLTISSLQPEDFATYYCLQHNSYPFTFGPGTKVDIK
B7: H1M728N (antibody, V domains shown)
VH: B3 VH
VL: B3 VL
B8: H2M730N (antibody, V domains shown)
VH: EVQLVESGGGLVQPGGSLRLSCAASGFAFRSYWMTWVRQAPGKGLEWVANIQQDGNDKYYVDSVKGRFTISRDNAKNSLYLQMNSLRAEDTAVYYCARDTGIAEAGPFDYWGQGTLVTVSS
VL: B3 VL with T20S, V21I, N31S, K45R, S49Y, S76N, M102K
B9: H1M724N (antibody, V domains shown)
VH: QVQLVESGGGVVQPGRSLRLSCAASGFTLSNYGMHWVRQAPGKGLEWVAVIWHDGSNTYYADSVKGRFTISRDNSKNTLYLQMNSLRAEDTAVYYCTREGLDFWSGYYPNWFDPWGQGTLVTVSS
VL: B6 VL with D28G, S53N, T85A, S93I, F96L, P100G, D105E
B10: H1H707P (antibody, human IgG1, V domains shown)
VH: QVQLVESGGGVVQPGRSLRLSCAASGFTFSSYGMHWVRQAPDKGLEWVAVKWDDGSNKYYADSVKGRFTISRDNSKNTLYLQMNSLRAEDTAVYYCAREGPYDFYSGYGAFDIWGQGTMVTVSS
VL: not shown
notes: Human IgG1

Molecular target: T1, Monomeric hAng-2FD
Assay: SPR, captured Ab

| Binder | Kd [nM] | T1/2 [h] |
| --- | --- | --- |
| B1 | 4.81 | 0.3 |
| B2 | 0.399 | 2.61 |
| B3 | 1.17 | 0.565 |
| B4 | 1.38 | 0.465 |
| B5 | 0.475 | 1.49 |
| B6 | 6.13 | 0.312 |

Molecular target: T2, wild-type human Ang-2 (hAng-2-WT)
Assay: SPR, captured Ab

| Binder | Kd [nM] | T1/2 [h] |
| --- | --- | --- |
| B1 | 0.0679 | 7.28 |
| B2 | 0.0143 | 39.4 |
| B3 | 0.0338 | 12.1 |
| B4 | 0.049 | 7.98 |
| B5 | 0.0289 | 14.1 |
| B6 | 0.131 | 5.55 |

Molecular target: T3, Dimeric Human Ang-2FD conjugated to human IgG1 (human)
T3 construct: also called Human Ang-2FD-hFc; hAng-2FD-hFc
Assay: SPR, captured Ab, RT
Method: (§1) Antibody was captured on a goat anti-mouse IgG polyclonal antibody surface, a goat anti-human κ polyclonal antibody (Southern Biotech, Birmingham, Ala.) surface or a goat anti-human IgG polyclonal antibody (Jackson Immuno Research Lab, West Grove, Pa.) surface created through direct amine coupling to a BIACORE™ CM5 sensor chip to form a captured antibody surface. […] Antigen-antibody binding and dissociation were monitored in real time at room temperature. Kinetic analysis was performed to calculate KD and half-life of antigen/antibody complex dissociation.

| Binder | Kd [nM] | T1/2 [h] |
| --- | --- | --- |
| B1 | 0.295 | 0.633 |
| B2 | 0.154 | 2.78 |
| B3 | 0.137 | 0.973 |
| B4 | 0.165 | 0.715 |
| B5 | 0.0989 | 1.82 |
| B6 | 0.484 | 0.592 |

Molecular target: T4, Dimeric Mouse Ang-2FD conjugated to human IgG1 (mouse (Mus musculus); human)
T4 construct: also called Mouse Ang-2FD-hFc
Assay: SPR, captured Ab, RT
Method: as §1

| Binder | Kd [nM] | T1/2 [h] |
| --- | --- | --- |
| B1 | 0.61 | 0.513 |
| B2 | 0.882 | 3.25 |
| B3 | 5.65 | 0.165 |
| B4 | 0.529 | 0.425 |
| B5 | 0.143 | 3.72 |
| B6 | 1.7 | 0.357 |

Molecular target: T5, Dimeric Monkey Ang-2FD conjugated to human IgG1 (monkey (Macca fascicularis); human)
T5 construct: also called Monkey Ang-2FD-hFc
Assay: SPR, captured Ab, RT
Method: as §1

| Binder | Kd [nM] | T1/2 [h] |
| --- | --- | --- |
| B1 | 6.17 | 0.475 |
| B2 | 0.234 | 2.82 |
| B3 | 1.58 | 1.16 |
| B4 | 1.5 | 0.682 |
| B5 | 0.5 | 4.69 |
| B6 | 7.33 | 0.402 |

Molecular target: T3, Dimeric Human Ang-2FD conjugated to …
Assay: competition ELISA, 16.67 nM Ab, coated hTie-2-mFc
Method: (§2) The plate was then blocked with PBS (Irvine Scientific, Santa Ana, Calif.) containing 0.5% BSA (Sigma-Aldrich Corp., St. Louis, Mo.) for one hour at room temperature. […] Human, mouse or monkey Ang-2FD protein conjugated to human IgG (Ang-2FD-hFc) were added to final concentrations of 2 nM, 8 nM, or 2 nM respectively and incubated for one hour at room temperature. The antibody/Ang-2FD-Fc mixture was then added to the plate containing hTie-2-mFc and incubated for one hour at room temperature. Detection of Ang-2FD-hFc bound to hTie-2-mFc protein was determined with Horse-Radish Peroxidase (HRP) conjugated to a-human IgG antibody (Jackson Immuno Research Lab, West Grove, Pa.) and developed by standard colorimetric response using tetramethylbenzidine (TMB) substrate (BD Biosciences, San Jose, Calif.). Absorbance was read at OD₄₅₀ for 0.1 sec.

| Binder | Percent Blocking of Ang-2FD Binding to Tie-2 [%] |
| --- | --- |
| B1 | 99.6 |
| B2 | 99.6 |
| B3 | 98.5 |
| B4 | 99.5 |
| B5 | 99.5 |
| B6 | 97.7 |

Molecular target: T4, Dimeric Mouse Ang-2FD conjugated to …
Assay: competition ELISA, 16.67 nM Ab, coated hTie-2-mFc
Method: as §2

| Binder | Percent Blocking of Ang-2FD Binding to Tie-2 [%] |
| --- | --- |
| B1 | 98.6 |
| B2 | 98.4 |
| B3 | 83.9 |
| B4 | 97.3 |
| B5 | 98.4 |
| B6 | 90.9 |

Molecular target: T5, Dimeric Monkey Ang-2FD conjugated to …
Assay: competition ELISA, 16.67 nM Ab, coated hTie-2-mFc
Method: as §2

| Binder | Percent Blocking of Ang-2FD Binding to Tie-2 [%] |
| --- | --- |
| B1 | 94.1 |
| B2 | 95.1 |
| B3 | 97.1 |
| B4 | 97.4 |
| B5 | 95.5 |
| B6 | 95.8 |

Molecular target: T6, Biotin-hBA2 (human, biotinylated (sites not given))
T6 construct: hBA2 consists of two dimers; also called biotinylated hBA2; human bow-Ang2
Assay: blocking ELISA, biotin-hBA2 to hTie-2-His, mean of two experiments
Method: as §2
For this experiment, human Tie-2 conjugated to a histidine tag (hTie-2-His; SEQ ID NO:526) was used in a similar fashion to the hTie-2-mFc described above. Antibody concentrations from 5 nM were serially diluted three-fold. […] An average IC₅₀ value for each antibody was calculated based on two separate experiments.

| Binder | IC50 [nM] |
| --- | --- |
| B7 | 0.014 |
| B8 | 0.0146 |
| B9 | 0.00972 |

Molecular target: T7, Human Ang-2FD-hFc (human)
T7 construct: also called dimeric human Ang-2FD; human Ang-2FD protein conjugated to human IgG
Assay: blocking ELISA, 16.67 nM antibody, Ang-2FD-hFc to coated hTie-2-mFc
Method: as §2

| Binder | Percent Blocking of Ang-2FD Binding to Tie-2 [%] |
| --- | --- |
| B10 | 95.1 |

Molecular target: T8, Mouse Ang-2FD-hFc (mouse (Mus musculus))
T8 construct: also called dimeric mouse Ang-2FD
Assay: as above
Method: as §2

| Binder | Percent Blocking of Ang-2FD Binding to Tie-2 [%] |
| --- | --- |
| B10 | 93.8 |
